# Assay: soluble on expression in E. coli; label from the status in PepcDB or PDB records
row,Sequence,soluble on expression in E. coli
1,IKVQIEKQLSERILLIDGGMGTMIQGYKFEEEDYRGERFNKWHCDLKGNNDLLVLSQPQIIRDIHEAYLEAGADILETNTFNATTIAMADYDMESLSEEINFEAAKLAREVADKWTEKTPNKPRYVAGVLGPTNRTCSISPDVNDPGFRNVSFDELVEAYSESTRALIRGGSDLILIETIFDTLNAKACSFAVESVFEELDITLPVMISGTITDASGRTLSGQTTEAFYNALRHVKPISFGLNCALGPDELREYVSDLSRISECYVSAHPNAGLPNAFGEYDLSPEDMAEHVAEWASSGFLNLIGGCCGTTPEHIRQMALVVEGVKPRQLPELPVACRLSGLEPLTIEKDSLFINVGERTNVTGSARF,not soluble
2,ILLLLLSLFLGLSSQAQEDSLQANRYVMRATLYGAGFTNILDTYLSPMEYTGPEIRILRESMRMTKLMNGNVSVQSLFQANLSLTENKAETSNEMAGMVNWNYALHYQFRLTENLKILAGPMLDLNGGFIYNMRNSNNPAQAKAYVNLAASGMVIYRFHIGNYPLIARYQANLPVMGIMFSPEYGQSYYEIFSLKNGGKNVLFTSLHNQPSLRQLVTLDFPIRSVNMRFGYLCDIQQAKVNNLKSHIWSHAFMIGFVKNFYLLKGKNKVAMPSRVSPY,not soluble
3,ILLPSKPRFIFQDVTVFNFNVSGNPSDLNTPVVQFNLSFRNPNANIRIYYDTLDVYAFYGNGSQQIIIPTPMPSTYQGHKEDSVWSPYIPVVPYNALYLDDQHHSRDGNMLMLHLDGRISWLLLGN,not soluble
4,IPLPEQPGGSSDFIAFTDKAKLTFTTSRPMKMVYTLDETEPTLTSTPYTVPLEFAQTGLLKIRTVTAGGKMSPVRRIRVEKQPFNMSMEVPAPKPGLTIRTAYGDLYDVPDLQQVASWEVGTVSSLEEIMHGKEKITSPEVLERRVVEATGYVLIPEDGVYEFSTENNEFWIDNVKLIDNVGEVKKFSRRNSSRALQKGYHPIKTIWVGAIQGGWPTYWNYSRVMIRLKGEEKFKPISSDMLFQ,not soluble
5,IPRFGVKTEQEDVLAKELEDVNKWGLHVFRIAELSGNRPLTVIMHTIFQERDLLKTFKIPVDTLITYLMTLEDHYHADVAYHNNIHAADVVQSTHVLLSTPALEAVFTDLEILAAIFASAIHDVDHPGVSNQFLINTNSELALMYNDSSVLENHHLAVGFKLLQEENCDIFQNLTKKQRQSLRKMVIDIVLATDMSKHMNLLADLKTMVETKKVTSSGVLLLDNYSDRIQVLQNMVHCADLSNPTKPLQLYRQWTDRIMEEFFRQGDRERERGMEISPMCDKHNASVEKSQVGFIDYIVHPLWETWADLVHPDAQDILDTLEDNREWYQSTIPQSPSPAPDDPEEGRQGQTEKFQFELTLE,soluble
6,IQEHAIDLSQKSALVIDEELYLPELSLDTLKGLETLAPFGMNNKKPIFLLRDFTVKQVRTMGQNGAHLKLKVAQEQAVFDLLAFNYGSLVTEFQQAQHLELAVTLSVNRWNGNTSLQ,not soluble
7,IRRKINANVYDKVVLYAPTWRGIHGKATLDIEKLKNDLEKLADQDCHIVFRGHHMIEKLVSEQNISGITIVPSEIDTNELLGAIDILITDYSSIAFDFFVMNRPVIYYAYDIEQYNNERGLYFPLNELPGTVCFNDVELLNTLSGYLRNEIYFDASKGIDKFCKNDDGSVCGKVIEWFFF,not soluble
8,ISNHPAPEYWCSIAYFEMDVQVGETFKVPSSCPIVTVDGYVDPSGGDRFCLGQLSNVHRTEAIERARLHIGKGVQLECKGEGDVWVRCLSDHAVFVQSYYLDREAGRAPGDAVHKIYPSAYIKVFDLRQCHRQMQQQAATAQAAAAAQAAAVAGNIPGPGSVGGIAPAISLSAAAGIGVDDLRRLCILRMSFVKGWGPDYPRQSIKETPCWIEIHLHRALQLLDEVLHTMPIADPQPLD,soluble
9,IVGGRRARPHAWPFMVSLQLRGGHFCGATLIAPNFVMSAAHCVANVNVRAVRVVLGAHNLSRREPTRQVFAVQRIFENGYDPVNLLNDIVILQLNGSATINANVQVAQLPAQGRRLGNGVQCLAMGWGLLGRNRGIASVLQELNVTVVTSLCRRSNVCTLVRGRQAGVCFGDSGSPLVCNGLIHGIASFVRGGCASGLYPDAFAPVAQFVNWIDSIIQ,soluble
10,IVVYTDREVYGAVGSQVTLHCSFWSSEWVSDDISFTWRYQPEGGRDAISIFHYAKGQPYIDEVGTFKERIQWVGDPSWKDGSIVIHNLDYSDNGTFTCDVKNPPDIVGKTSQVTLYVFEKVPTR,soluble
11,KAIYNRNLGYSDGAGAVLALKKKGHQNACKIAGCELWLKIIERYSREKSFYLVGGKPEVIEETIQKLRKDFPRINIVGYRDGYLKGNDDEVLIEDIAAKKPDVVFVAMGSPKQELLMERMQRVHPNAIYQGLGGSFDVYTGRVERAPEWWIRHNLEFAYRLIKQPSRIKRQIHLVRFLFRVLTNRI,not soluble
12,KAPLDEIADDSFWSDETLVKYYVNDLYSEISVDGLQLQENRSDNSVSAQRDKYRASWFKFNYDMVSASDPQDDDVWEDYYVKVRKCNRFFERIGTSTIEESEKSRLTGEVHFLRAMFYFEMVKRYGGVILLDKVLTMEDNWEIPRSSEKECYDFILEDLKKATEMLPASYGSREKGRATKGAAYALKSRVELYDKRYEDVIKSCAEVYKLGYELVDGTTPEKYRSIWWTTNKDNKEIIFDVQYKSPDVYNNMMVCNMVTYINDKYGDRGWGGLGPTQELIDAFEMADGTPATQYSQAPADQVFDINTCGIYEGREPRFYANIVFHGSQIFFNADKGAVTVDRYLMDTPDKGDGSLTGYNVWKWIDYDNYNYPYAGAGSPDFSTNWIILRYAEIYLNDAEARLETGDVEGARKAVNMIRQRVGLPDLTESDPEKLRELIRKERRIEFAFEEQRFYDVRRWKIGPETQTTLHGVRFVSPTEFKVTKTDIRTWNDRLYLTPVPHDEIVRSSVLKQNLGY,soluble
13,KAPLRDMRFVLNEVFEVSRLWAQLPALAEVVDAETAAAILEEAGKVTAGTIAPLNRPGDEEGCQWNAGAVSTPAGFPEAYRTYAEGGWVGVGGDPAYGGMGMPKVISAQVEELVNSANLSFGLYPMLTAGACLALNAHASDELKDKYLPNMYAGIWAGSMCLTEPHAGTDLGIIRTRAEPQADGSYKISGTKIFITGGEHDLTENIIHLVLAKLPDAPAGPKGISLFLVPKVLVNADGSLGEKNSLGCGSIEHKMGIKASATCVMNFDGATGWLVGEVNKGLAAMFTMMNYERLGVGIQGLATGERSYQSAIEYARERIQSRAPTGPVAKDKAADPIIVHPDVRRMLLTMKALNEGGRAFSSYVAMQLDTAKYSEDAVTRKRAEELVALLTPVAKAFLTDMGLETTIHGQQIFGGHGFIREWGQEQLVRDCRITQIYEGTNGIQALDLVGRKVIGSGGAFSRHFTDEIKAFVASADEALGEFSKPLAAAVENLEELTAWLLDRAKGNPNEIGAASVEYLHVFGYTAYAYMWALMARTALAKQGEDDFYASKLGTARFYFARLLPRIHSLSASVRAGS,not soluble
14,KAVIDIDAATKIMCSNAKAISLNEVEKNEIISKYREITAKKSERAELKEVEPIPLDWPSDLTLPPLPESTNDYVWAGKRKELDDYPRKQLIIDGLSIVIPTYNRAKILAITLACLCNQKTIYDYEVIVADDGSKENIEEIVREFESLLNIKYVRQKDYGYQLCAVRNLGLRAAKYNYVAILDCDMAPNPLWVQSYMELLAVDDNVALIGPRKYIDTSKHTYLDFLSQKSLINEIPEIITNNQVAGKVEQNKSVDWRIEHFKNTDNLRLCNTPFRFFSGGNVAFAKKWLFRAGWFDEEFTHWGGEDNEFGYRLYREGCYFRSVEGAMAYHQEPPGKENETDRAAGKNITVQLLQQKVPYFYRKKEKIESATLKRVPLVSIYIPAYNCSKYIVRCVESALNQTITDLEVCICDDGSTDDTLRILQEHYANHPRVRFISQKNKGIGSASNTAVRLCRGFYIGQLDSDDFLEPDAVELCLDEFRKDLSLACVYTTNRNIDREGNLISNGYNWPIYSREKLTSAMICHHFRMFTARAWNLTEGFNESISNAVDYDMYLKLSEVGPFKHINKICYNRVLHGENTSIKKLDIQKENHFKVVNESLSRLGIKKYKYSPLTNLNECRKYTWEKI,soluble
15,KDCASDGTLSAVGSLETPEKKQSESSRGRKRKAENQNESSQGKSIGGRGHKISDYFEYQGGNGSSPVRGIPPAIRSPQNSHSHSTPSSSVRPNSPSPTALAFGDHPIVQPKQLSFKIIQTDLTMLKLAALESNKIQDLEKKEGRIDDLLRANCDLRRQIDEQQKLLEKYKERLNKCISMSKKLLIEKSTQEKLSSREKSMQDRLRLGHFTTVRHGASFTEQWTDGFAFQNLVKQQEWVNQQREDIERQRKLLAKRKPPTANNSQAPSTNSEPKQRKNKAVNGAENDPFVRPNLPQLLTLAEYHEQEEIFKLRLGHLKKEEAEIQAELERLERVRNLHIRELKRINNEDNSQFKDHPTLNERYLLLHLLGRGGFSEVYKAFDLYEQRYAAVKIHQLNKSWRDEKKENYHKHACREYRIHKELDHPRIVKLYDYFSLDTDTFCTVLEYCEGNDLDFYLKQHKLMSEKEARSIVMQIVNALRYLNEIKPPIIHYDLKPGNILLVDGTACGEIKITDFGLSKIMDDDSYGVDGMDLTSQGAGTYWYLPPECFVVGKEPPKISNKVDVWSVGVIFFQCLYGRKPFGHNQSQQDILQENTILKATEVQFPVKPVVSSEAKAFIRRCLAYRKEDRFDVHQLANDPYLLPHMRRSNSSGNLHMAGLTASPTPPSSSIITY,soluble
16,KDETVGVGVLSEPHARLLEIAKEEVKKQHIELRIVEFTNYVALNEAVMRGDILMNFFQHVPHMQQFNQEHNGDLVSVGNVHVEPLALYSRTYRHVSDFPAGAVIAIPNDSSNEARALRLLEAAGFIRMRAGSGLFATVEDVQQNVRNVVLQEVESALLPRVFDQVDGAVINGNYAIMAGLSARRDGLAVEPDASAYANVLVVKRGNEADARVQAVLRALCGGRVRTYLKERYKGGEVAPAL,soluble
17,KDFVSDVLPTIAECYHHLGQEDELVEFLRACIDKKAGVSAELMLAQLVAHHESVGAAQELLTKQLLKNPTMKGFYRLIDYHIAEAEDGRAKDSLSTLQAMVGEQLKVKPHYRCRKCGFSTHSLYWHCPSCKGWGTIKPIRGLDGE,not soluble
18,KDIGSLTLALEQLKEKLRLKGYFDEENKLPKPHFPKRVAVITSQNSAAWADMKKIASKRWPMCELVCINTLMQGEGCVQSVVESIVYADSFHDTK,not soluble
19,KDRSIIAMGAWLEVLSEEKDGNRLARHHEHGKIWKKPTRHEDIADFFPFGNPIHNNTMIMRRSVIDGGLRYNTERDWAEDYQFWYDVSKLGRLAYYPEALVKYRLHANQVSSKYSIRQHEIAQGIQKTARNDFLQSMGFKTRFDSLEYRQIKAVAYELLEKHLPEEDFERARRFLYQCFKRTDTLPAGAWLDFAADGRMRRLFTLRQYFGILHRLLKNR,not soluble
20,KEDYDRRSGKVSEPAPQATEEEDKVEVEPEDNGISSVADMSDGKESIAPKGHAVKPDEGAHSAKKTYKIQILSSTTKLKNGDKRLKGYKVVIEQRGGRFFYLTGAVSSEDEARHLRKKVRKSFPDAYIVVYEAGKRVREIY,not soluble
21,KEEELVSDEEIGVKISLTGLKGGHSGVDIHLGRANANKLMFRFLKEAVGFYGARLAWVEGGSLRNAIPREAFAVITIQEEEAEAVWELVSDYQDLFRKEFSGIEENIKFEASRIECPRMIIPEEIQDCLINAVEACVNGPQSMLQDFPGTVESSSNLALITAKEGSISVRFLVRSSSESHKMWVASAIESVFSLAGARVEFDASYNGWQPNIQSHILEVMSKVFEEYYGQKPEVQVMHAGLECGIIQGVMPDMDMISVGPELQSPHSPDERIHIESVARTWEVLVKVLERV,not soluble

# Reference: the DeepSol protein solubility set
